In paper PMC9420396:

Key:
[1] = biological target: T1, DDX21 helicase core WT (human, UniProt Q9NR30 188-563); assay: MST
T1 sequence: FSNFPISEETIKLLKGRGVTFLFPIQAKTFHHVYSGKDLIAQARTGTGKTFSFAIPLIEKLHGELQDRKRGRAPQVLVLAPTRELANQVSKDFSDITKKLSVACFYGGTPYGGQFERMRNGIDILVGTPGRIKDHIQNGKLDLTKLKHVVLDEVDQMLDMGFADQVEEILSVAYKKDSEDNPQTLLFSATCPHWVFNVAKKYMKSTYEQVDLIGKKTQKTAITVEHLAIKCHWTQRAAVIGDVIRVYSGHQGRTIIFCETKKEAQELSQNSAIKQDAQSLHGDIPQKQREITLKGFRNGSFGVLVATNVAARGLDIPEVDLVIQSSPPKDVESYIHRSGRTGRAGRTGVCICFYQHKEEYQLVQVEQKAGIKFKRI

[2] = biological target: T1, DDX21 helicase core WT; assay: SEC co-elution

Binder: UUUUUUUUUUUUUUU (ssRNA) [U15 RNA, 5'-FAM]
- binding result [1]: binds

Binder: UUUUUUUUUUUUUUU (ssRNA) [U15 RNA (SEC)]
- binding result [2]: binds
